From patent publication US20100260765A1 (AstraZeneca / MedImmune, published 2010)

B1: anti-KDR monoclonal antibody 21H6 (antibody, V domains shown)
VH: QVQLVESGGGLVKPGGSLRLSCAASGFTFSDYYMSWIRQAPGKGLEWVSYISNSGITIYYADSVKGRFTISRDNAKNSLYLQMNSLRAGDTAVYYCAREEWYSSRWYRNFDYWGQGTLVTVSS
VL: DIQMTQFSSSLSASVGDRVTITCRASQSISRYLNWYQQKPGKAPKLLIYAASSLQSGVPSRFNGSGSGTDFTLTISSLQPEDFATYYCQQSYSAPLTFGGGTKVEIK
notes: Fully human mAb from XenoMouse; hybridoma supernatant
B2: anti-KDR monoclonal antibody 24C9 (antibody, V domains shown)
VH: EVQLVESGGGLVKPGGSLRLSCAASGFTFSTYSMNWVRQAPGKGLEWVSFISGRSSYIYYADSVKGRFTISRDNAKNSLYLQMNSLRAEDTAVYYCSKDDWFEELWGQGTLVTVSS
VL: DIQMTQSPSSLSASVGDRVTITCRASQGIRNDLGWYQQKPGKAPKRLIYATFSLQSGVPSRFSGSGSGTEFTLTISSLQPEDFATYYCLQHNRYPWTFGQGTKVEIK
notes: Fully human mAb from XenoMouse (IgG2 or IgG4 strain); hybridoma supernatant
B3: anti-KDR monoclonal antibody 29F7 (antibody, V domains shown)
VH: QVQLVQSGAEVKKPGASVKVSCKASGYTFTSYDINWVRQATGQGLEWMGWMNPNSGKTGYAQKFQGRVTMTRSTSISTAYMELSSLRSEDTAVYYCARGGYSNLGWFDPWGQGTLVTVSS
VL: DIQMTQSPSSVFASVGDRVTITCRASQGISTWLAWYQQKPGKAPKFLIYAASSLQSGVPSRFSGSGSGTDFTLTISSLQPDDFATYYCQQANNFPFTFGPGTKVDIK
notes: as for B2
B4: anti-KDR monoclonal antibody 21A1 (antibody, V domains shown)
VH: QVQLVESGGGLVKPGGSLRLSCAASGFTFSDYYMSWIRQAPGKGLEWVSYISNSGITIYYADSVKGRFTISRDNAKNSLYLQMNSLRAGDTAVYYCAREEWYSSRWYRNFDYWGQGTLVTVSS
VL: DIQMTQFSSSLSASVGDRVTITCRASQSISRYLNWYQQKPGKAPKLLIYAASSLQSGVPSRFNGSGSGTDFTLTISSLQPEDFATYYCQQSYSAPLTFGGGTKVEIK
notes: as for B2

What was measured:
[1] = biological target: T1, human KDR (VEGFR2) on cells (human, UniProt P35968 20-1356); test: cell-based or functional assay
[2] = biological target: T1, human KDR (VEGFR2) on cells; test: cell-based or functional assay; remark: listed apart in the source
[3] = biological target: T1, human KDR (VEGFR2) on cells; test: cell-based or functional assay; remark: listed apart in the source
[4] = biological target: T1, human KDR (VEGFR2) on cells; test: FACS on HUVEC, hybridoma supernatant 1:50
Experimental: HUVECs were seeded at 15,000 cells/well and incubated with 100 μL of sample supernatant (at 1:50 dilution) for one hour at 4° C. The positive control was goat anti-KDR antibody (R&D Systems, Inc.), and negative controls included irrelevant hybridoma supernatants at the same dilution. The cells were then washed and incubated with Cy5-conjugated goat anti-human antibody at 5 μg/mL and 7-Amino-Actinomycin D (7AAD) at 5 μg/mL for 15 minutes at 4° C. Bound KDR was detected using FACS analysis.

[5] = biological target: T2, soluble KDR (VEGF Receptor 2 D1-7, Cat. #676490, Calbiochem) (human, UniProt P35968 20-764); test: ELISA, plate-coated soluble KDR 250 ng/mL, hybridoma supernatant 1:5
T2 construct: extracellular domain; Bought reagent; also called soluble human KDR; immobilized soluble KDR
Experimental: To screen by binding to immobilized soluble KDR, plates were coated with KDR (Calbiochem) at 250 ng/mL overnight at 4° C. After blocking and washing the coated plates, the candidate hybridoma supernatants (at 1:5 dilution) were transferred to the plates and incubated for one hour at room temperature. The plates were then washed and incubated with secondary antibody (at 1:4000 dilution) for one hour at room temperature.

b-KDRIg4-7-myc-his = biological target: T3, b-KDRIg4-7-myc-his (UniProt P35968 328-764, prefix 'b-' not explained; captured on neutravidin-coated plates (presumably biotinylated, site not stated)); test: ELISA, b-KDRIg4-7-myc-his 1 ug/mL on neutravidin, hybridoma supernatant 1:5
T3 construct: domain: Ig4-7; The text calls it 'a KDR antibody containing the Ig4-7 domain'; it is read as the KDR fragment; Purified on a nickel column; also called Ig4-7 domain of KDR; soluble KDR Ig4-7; not shown: myc-his tag of the pSecTag vector
Experimental: To screen by binding to the Ig4-7 domain of KDR, plates were first coated with neutravadin (Pierce) at 4 μg/mL and incubated overnight at 4° C. The plates were then blocked and subsequently incubated with b-KDRIg4-7-myc-his at 1 μg/mL for one hour at room temperature. Candidate hybridoma supernatants (at 1:5 dilution) were transferred to the plates and incubated for one hour at room temperature. The plates were then washed and incubated with goat anti-human IgG Fc POD (at 1:4000 dilution) for one hour at room temperature.

[6] = biological target: T4, mouse KDR (Flk-1)/Fc (Cat. #443-KD/CF, R&D Systems) (mouse, UniProt P35918 20-762); test: ELISA, plate-coated Flk-1/Fc 500 ng/mL, hybridoma supernatant 1:5
T4 construct: Bought reagent; also called mouse VEGFR2; KDR mouse ortholog; Fc part of the bought chimera not given
Experimental: The cross-reactivity of antibodies in the hybridoma supernatant was tested against KDR mouse ortholog (mouse VEGFR2, or Flk-1) and human VEGFR1 (Flt-1). Cross-reactivity was measured using an ELISA based assay.
After washing and blocking the plates, the antibody-containing supernatants were added (at 1:5 dilution) into the coated wells and incubated for one hour at room temperature. The plates were then incubated with mouse anti-human IgG 2, 3 and 4 and subsequently with goat anti-mouse IgG Fc POD, to detect and measure bound antibodies.

T2 sequence (P35968 20-764): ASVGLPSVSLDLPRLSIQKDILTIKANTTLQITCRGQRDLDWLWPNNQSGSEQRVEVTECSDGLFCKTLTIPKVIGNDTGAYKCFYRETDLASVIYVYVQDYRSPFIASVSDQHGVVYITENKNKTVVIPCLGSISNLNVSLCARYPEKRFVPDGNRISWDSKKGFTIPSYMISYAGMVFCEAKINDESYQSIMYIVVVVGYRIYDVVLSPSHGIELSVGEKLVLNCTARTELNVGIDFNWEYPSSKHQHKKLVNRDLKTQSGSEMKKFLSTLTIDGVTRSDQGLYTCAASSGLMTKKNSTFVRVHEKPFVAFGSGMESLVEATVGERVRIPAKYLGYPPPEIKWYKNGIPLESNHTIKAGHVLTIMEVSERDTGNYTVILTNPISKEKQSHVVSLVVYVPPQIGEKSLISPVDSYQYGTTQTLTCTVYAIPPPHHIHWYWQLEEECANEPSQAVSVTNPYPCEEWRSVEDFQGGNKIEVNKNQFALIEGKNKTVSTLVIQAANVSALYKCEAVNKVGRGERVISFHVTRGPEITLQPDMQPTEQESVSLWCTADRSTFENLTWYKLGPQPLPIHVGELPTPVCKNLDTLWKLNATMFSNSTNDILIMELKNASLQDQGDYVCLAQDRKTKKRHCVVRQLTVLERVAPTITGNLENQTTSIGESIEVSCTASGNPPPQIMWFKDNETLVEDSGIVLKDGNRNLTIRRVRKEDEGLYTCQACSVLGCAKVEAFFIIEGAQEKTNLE
T1 sequence (P35968 20-1356): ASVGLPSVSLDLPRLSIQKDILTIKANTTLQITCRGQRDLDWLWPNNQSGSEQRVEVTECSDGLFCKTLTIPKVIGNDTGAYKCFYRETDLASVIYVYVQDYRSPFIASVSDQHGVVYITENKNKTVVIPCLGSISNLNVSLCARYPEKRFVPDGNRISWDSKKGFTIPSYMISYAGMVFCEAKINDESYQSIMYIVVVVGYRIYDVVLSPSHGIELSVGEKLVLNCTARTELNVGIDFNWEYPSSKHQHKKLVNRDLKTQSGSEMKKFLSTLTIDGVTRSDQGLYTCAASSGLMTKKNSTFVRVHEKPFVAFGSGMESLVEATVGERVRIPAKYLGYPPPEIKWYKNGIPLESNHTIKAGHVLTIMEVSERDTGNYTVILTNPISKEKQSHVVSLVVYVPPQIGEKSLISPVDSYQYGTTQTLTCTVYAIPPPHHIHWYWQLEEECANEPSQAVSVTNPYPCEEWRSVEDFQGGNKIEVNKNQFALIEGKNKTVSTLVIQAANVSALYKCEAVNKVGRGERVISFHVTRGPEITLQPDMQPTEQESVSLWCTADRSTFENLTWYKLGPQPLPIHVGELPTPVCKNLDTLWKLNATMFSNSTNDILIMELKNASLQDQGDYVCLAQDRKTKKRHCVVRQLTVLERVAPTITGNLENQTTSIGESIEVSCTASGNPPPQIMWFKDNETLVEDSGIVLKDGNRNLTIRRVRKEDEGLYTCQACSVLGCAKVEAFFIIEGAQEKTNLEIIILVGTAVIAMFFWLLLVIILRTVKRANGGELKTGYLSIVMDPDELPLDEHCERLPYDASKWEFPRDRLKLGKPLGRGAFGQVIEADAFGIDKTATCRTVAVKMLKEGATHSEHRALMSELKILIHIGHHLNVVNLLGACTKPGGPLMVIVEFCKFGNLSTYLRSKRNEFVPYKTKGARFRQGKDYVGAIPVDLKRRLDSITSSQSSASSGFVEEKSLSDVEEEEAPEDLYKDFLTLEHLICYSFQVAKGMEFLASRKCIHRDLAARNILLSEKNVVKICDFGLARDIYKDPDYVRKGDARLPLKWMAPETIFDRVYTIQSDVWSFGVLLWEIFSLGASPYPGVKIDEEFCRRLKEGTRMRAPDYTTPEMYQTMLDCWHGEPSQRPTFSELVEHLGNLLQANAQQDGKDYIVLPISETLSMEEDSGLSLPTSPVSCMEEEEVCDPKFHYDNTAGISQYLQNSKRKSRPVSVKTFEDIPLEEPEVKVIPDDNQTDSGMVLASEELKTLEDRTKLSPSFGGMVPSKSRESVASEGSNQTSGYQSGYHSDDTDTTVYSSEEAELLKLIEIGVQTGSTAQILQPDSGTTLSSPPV
T3 sequence (P35968 328-764): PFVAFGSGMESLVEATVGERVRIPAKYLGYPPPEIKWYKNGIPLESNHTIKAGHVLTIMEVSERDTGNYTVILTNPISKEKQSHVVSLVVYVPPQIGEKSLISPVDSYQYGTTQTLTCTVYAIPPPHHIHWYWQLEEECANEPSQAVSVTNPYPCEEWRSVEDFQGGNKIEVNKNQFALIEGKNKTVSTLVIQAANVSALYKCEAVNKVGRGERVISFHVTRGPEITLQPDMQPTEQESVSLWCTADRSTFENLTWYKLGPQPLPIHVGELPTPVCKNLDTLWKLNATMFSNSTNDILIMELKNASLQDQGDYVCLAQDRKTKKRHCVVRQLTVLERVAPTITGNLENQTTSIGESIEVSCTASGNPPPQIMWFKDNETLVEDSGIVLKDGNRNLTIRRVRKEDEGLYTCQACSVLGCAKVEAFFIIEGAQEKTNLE
T4 sequence (P35918 20-762): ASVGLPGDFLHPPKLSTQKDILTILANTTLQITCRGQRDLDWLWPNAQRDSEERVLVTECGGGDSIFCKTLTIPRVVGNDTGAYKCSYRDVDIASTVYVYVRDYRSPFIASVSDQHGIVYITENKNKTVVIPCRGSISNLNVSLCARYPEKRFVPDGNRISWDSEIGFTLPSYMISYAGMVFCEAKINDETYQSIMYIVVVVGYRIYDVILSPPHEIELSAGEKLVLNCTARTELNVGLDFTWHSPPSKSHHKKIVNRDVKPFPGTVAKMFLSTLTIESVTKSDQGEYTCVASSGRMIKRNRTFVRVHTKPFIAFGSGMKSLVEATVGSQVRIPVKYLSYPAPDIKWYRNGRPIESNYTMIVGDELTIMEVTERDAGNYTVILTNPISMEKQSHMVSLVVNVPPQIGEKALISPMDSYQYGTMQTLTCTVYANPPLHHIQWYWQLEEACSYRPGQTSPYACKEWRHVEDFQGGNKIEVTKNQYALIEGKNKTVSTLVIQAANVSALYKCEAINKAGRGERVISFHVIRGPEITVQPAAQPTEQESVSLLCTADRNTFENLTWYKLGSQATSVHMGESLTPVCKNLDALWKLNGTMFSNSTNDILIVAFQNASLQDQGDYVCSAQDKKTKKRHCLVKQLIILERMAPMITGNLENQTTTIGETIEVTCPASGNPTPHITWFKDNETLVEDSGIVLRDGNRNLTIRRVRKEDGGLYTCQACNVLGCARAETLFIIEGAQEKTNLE

| Binder | % Inhibition of VEGF165-mediated pTyr Activity, Average [1] [%] | % Inhibition of VEGF165-mediated pTyr Activity, n = 1 [1] [%] | % Inhibition of VEGF165-mediated pTyr Activity, n = 2 [1] [%] | % Inhibition of VEGF165-mediated pTyr Activity, n = 3 [1] [%] | % Inhibition of VEGF-E-mediated pTyr Activity [2] [%] | HUVEC survival (n = 1) 1:10 dilution of supernatant (RLU) [3] [RLU] | HUVEC survival (n = 2) 1:20 dilution of supernatant (RLU) [3] [RLU] | FACS Geometric Mean [4] | KDR OD(450 nm) [5] [OD450] | b-KDRIg4-7 OD(450 nm) (b-KDRIg4-7-myc-his) [OD450] | OD (450 nm) [6] [OD450] |
| --- | --- | --- | --- | --- | --- | --- | --- | --- | --- | --- | --- |
| B1 | 72 | 85 | 65 | 68 | 70 | 10200 | 247 | 18 | 0.62 | 0.935 | – |
| B2 | 46 | 55 | 45 | 38 | 51 | 14600 | 9180 | 33 | 0.55 | – | 0.098 |
| B3 | 78 | 90 | 67 | 77 | 45 | 44100 | 24000 | 32 | 1.22 | – | 0.093 |
| B4 | 72 | 71 | 77 | 68 | 67 | 8870 | 2670 | 14 | 0.967 | 1.27 | – |
